From patent publication US20200165312A1, “COSMETIC COMPOSITION FOR IMPROVING SKIN CONDITIONS COMPRISING FUSION PROTEIN INCLUDING SKIN PENETRATION ENHANCING PEPTIDE” (LG HOUSEHOLD & HEALTH CARE LTD., priority 2017, published 2020) come the findings set out here.

One data set has as its system dermal papilla cells. The data set is described as follows: Hair follicle stem cell proliferation: dermal papilla cells, Cell Counter Kit-8. Type of data set: cell-based. The settings on record: for Proliferation (%): one day, control = 100; for cell proliferation effect compared with the unfused protein: dermal papilla cells. As to the method: (§1) Specifically, dermal papilla cells were inoculated onto a 96-well plate and cultured for 24 hours to obtain cultures at a density of 6,000 cells per well. The cultures were washed with PBS and cultured in a serum-free DMEM medium for one day. The cells were washed with PBS again and cultured in a serum-free DMEM medium supplemented with 1 ng/mL T-PDGFa or PDGFa for one day. The cultures were obtained therefrom and a difference between proliferated amounts of cells was quantitively analyzed using the Cell Counter Kit-8 (Dojindo). Here, dermal papilla cells cultured in a serum-free DMEM medium without T-PDGFa or PDGFa were used as a control (Table 6).
Specifically, dermal papilla cells were inoculated onto a 96-well plate and cultured for 24 hours to obtain cultures at a density of 6,000 cells per well. The cultures were washed with PBS and cultured in a serum-free DMEM medium for one day. […] The cultures were obtained therefrom and a difference between proliferated amounts of cells was quantitively analyzed using the Cell Counter Kit-8 (Dojindo).
as §1, with “T-IGF-1” for “T-PDGFa”, “IGF-1” for “PDGFa”, “15).” for “6).”
as §1, with “10” for “1”, “T-KGF” for “T-PDGFa”, “KGF” for “PDGFa”, “19).” for “6).”
as §1, with “10” for “1”, “T-Tβ4” for “T-PDGFa”, “Tβ4” for “PDGFa”, “23).” for “6).”

Data set [1] is described as follows: Skin penetrability of growth factor fusion proteins (Franz glass cell, ELISA). The settings on record: for Penetrated amount (%): 2 μg, 16 hours; for skin penetrability compared with the unfused protein: summary of Tables 7, 12, 16, 20, 24. It counts as in vitro ADME, porcine. As to the method:
(§2) Specifically, porcine skin (thickness: 0.7 mm, Medikinetics) was placed between upper and lower ends of Franz glass cell (standard diameter: 9 mm, Receiver 5 mL, Permegear), and TBS (50 mM Tris pH 7.5, 150 mM NaCl) including 1% BSA and 0.01% Tween 20 was prepared. Then, 500 μL of the TBS was applied to the upper end of the glass cell (Donor chamber), and 5 mL of the TBS was applied to the lower end of the glass cell, (Receiver chamber). Subsequently, 2 μg of PDGFa or T-PDGFa was applied to the upper end of the glass cell, followed by reaction for 16 hours. Then, a concentration of PDGFa or T-PDGFa was quantitatively analyzed using the ELISA kit (R&D Systems), and a relative amount of T-PDGFa to PDGFa was calculated as a penetrated amount (Table 7).
Specifically, porcine skin (thickness: 0.7 mm, Medikinetics) was placed between upper and lower ends of Franz glass cell (standard diameter: 9 mm, Receiver 5 mL, Permegear), and TBS (50 mM Tris pH 7.5, 150 mM NaCl) including 1% BSA and 0.01% Tween 20 was prepared. Then, 500 μL of the TBS was applied to the upper end of the glass cell (Donor chamber), and 5 mL of the TBS was applied to the lower end of the glass cell, (Receiver chamber).
as §2, with “IGF-1” for “PDGFa”, “T-IGF-1” for “T-PDGFa”, “16).” for “7).”
as §2, with “KGF” for “PDGFa”, “T-KGF” for “T-PDGFa”, “20).” for “7).”
as §2, with “Tβ4” for “PDGFa”, “T-Tβ4” for “T-PDGFa”, “24).” for “7).”
A general note: An ELISA detects its analyte on a solid surface through an enzyme-linked reagent.

B1: T-KGF: SEQ ID NO: 1 peptide C-terminal linked to N-terminal of KGF via GG linker (protein)
chain: NGSLNTHLAPILGGCNDMTPEQMATNVNCSSPERHTRSYDYMEGGDIRVRRLFCRTQWYLRIDKRGKVKGTQEMKNNYNIMEIRTVAVGIVAIKGVESEFYLAMNKEGKLYAKKECNEDCNFKELILENHYNTYASAKWTHNGGEMFVALNQKGIPVRGKKTKKEQKTAHFLPMAIT
modifications: Synthetic Fusion protein of T-KGF
As to B1, the “Proliferation (%)” value in the data set with dermal papilla cells (10 ng/mL T-KGF or KGF) is on record as 270 ± 15%. In the data set with dermal papilla cells, the “cell proliferation effect compared with the unfused protein” value is given as “same level”. Moreover, the “Penetrated amount (%)” value in data set [1] (relative to KGF) came to 310 ± 12%. In data set [1], the “skin penetrability compared with the unfused protein” value is “about three times higher”.

B2: KGF: keratinocyte growth factor having an amino acid sequence of SEQ ID NO: 44 (protein)
chain: CNDMTPEQMATNVNCSSPERHTRSYDYMEGGDIRVRRLFCRTQWYLRIDKRGKVKGTQEMKNNYNIMEIRTVAVGIVAIKGVESEFYLAMNKEGKLYAKKECNEDCNFKELILENHYNTYASAKWTHNGGEMFVALNQKGIPVRGKKTKKEQKTAHFLPMAIT
modifications: Human KGF
Turning to B2, the “Proliferation (%)” value with dermal papilla cells (10 ng/mL T-KGF or KGF) was determined as 360 ± 35%. Moreover, in data set [1] (relative to KGF), the “Penetrated amount (%)” value is 100 ± 18%.

B3: T-VEGF: SEQ ID NO: 1 peptide C-terminal linked to N-terminal of VEGF via GG linker (protein)
chain: NGSLNTHLAPILGGAPMAEGGGQNHHEVVKFMDVYQRSYCHPIETLVDIFQEYPDEIEYIFKPSCVPLMRCGGCCNDEGLECVPTEESNITMQIMRIKPHQGQHIGEMSFLQHNKCECRPKKDRARQENPCGPCSERRKHLFVQDPQTCKCSCKNTDSRCKARQLELNERTCRCDKPRR
modifications: Synthetic Fusion protein of T-VEGF
As for B3, the “Proliferation (%)” value in the data set on dermal papilla cells (1 ng/mL T-VEGF or VEGF) amounted to 310 ± 20%. For the same molecule, in the data set on dermal papilla cells, the “cell proliferation effect compared with the unfused protein” value is on record as “same level”. Besides, the “Penetrated amount (%)” value in data set [1] (relative to VEGF) is recorded as 295 ± 21%. Moreover, the “skin penetrability compared with the unfused protein” value in data set [1] is “about three times higher”.
